This note sets out measurements from PMC7949046, “Human genetic variants disrupt RGS14 nuclear shuttling and regulation of LTP in hippocampal neurons” (The Journal of Biological Chemistry, 2020).

The experiment concerns the target T1, purified XPO1-GST (GST-CRM1, Exportin 1) (human, UniProt O14980 1-1071).
T1 construct: Results and legend name the protein of the pull-down XPO1-GST / GST-XPO1, but the methods say that CRM1/XPO1 was cleaved from the beads with TEV protease; also called GST-XPO1; CRM1/XPO1; source: E. coli BL21, purified (glutathione Sepharose 4B)
The experiment in a line: pull-down; purified RGS14 mixed 2 h with purified XPO1-GST and His-Ran Q69L-GTP; His-Ran captured on Ni-NTA; Coomassie and immunoblot. Conditions: both partners purified. On the technique in general: Immunoblotting shows a protein as a band on a membrane.

T1 sequence (O14980 whole entry): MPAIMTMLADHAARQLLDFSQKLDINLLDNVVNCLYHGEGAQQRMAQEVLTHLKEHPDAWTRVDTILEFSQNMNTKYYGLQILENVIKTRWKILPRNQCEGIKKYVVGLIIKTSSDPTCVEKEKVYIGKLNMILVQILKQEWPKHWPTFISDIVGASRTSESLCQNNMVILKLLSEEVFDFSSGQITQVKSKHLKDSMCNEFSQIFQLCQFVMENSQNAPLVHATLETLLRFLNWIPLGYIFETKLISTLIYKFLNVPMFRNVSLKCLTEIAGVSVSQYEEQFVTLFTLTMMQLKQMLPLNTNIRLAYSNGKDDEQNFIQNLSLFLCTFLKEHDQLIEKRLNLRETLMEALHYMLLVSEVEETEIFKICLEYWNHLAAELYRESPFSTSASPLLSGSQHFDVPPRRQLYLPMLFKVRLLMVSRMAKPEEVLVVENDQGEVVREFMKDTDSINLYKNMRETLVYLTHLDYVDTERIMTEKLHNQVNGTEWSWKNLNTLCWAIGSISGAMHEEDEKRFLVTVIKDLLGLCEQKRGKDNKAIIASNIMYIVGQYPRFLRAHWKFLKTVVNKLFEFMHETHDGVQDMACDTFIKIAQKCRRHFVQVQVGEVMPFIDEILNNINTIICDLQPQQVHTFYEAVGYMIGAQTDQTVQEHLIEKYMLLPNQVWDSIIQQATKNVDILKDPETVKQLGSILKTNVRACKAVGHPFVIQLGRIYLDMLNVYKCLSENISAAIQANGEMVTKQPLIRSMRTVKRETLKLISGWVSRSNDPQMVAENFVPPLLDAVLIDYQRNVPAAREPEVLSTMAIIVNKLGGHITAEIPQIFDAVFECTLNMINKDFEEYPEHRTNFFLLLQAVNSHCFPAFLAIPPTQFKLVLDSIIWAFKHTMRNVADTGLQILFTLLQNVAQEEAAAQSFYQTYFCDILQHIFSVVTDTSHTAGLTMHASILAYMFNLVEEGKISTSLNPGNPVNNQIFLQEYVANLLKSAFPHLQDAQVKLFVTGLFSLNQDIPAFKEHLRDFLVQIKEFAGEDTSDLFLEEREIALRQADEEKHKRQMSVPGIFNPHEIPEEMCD

B1: recombinant RGS14 WT, purified from E. coli (natural protein, rat, UniProt O08773 1-544, looked up)
chain: MPGKPKHLGVPNGRMVLAVSDGELTSTSGSQAQGEGRGSSLSIHSLPSGPSSPFSTDEQPVASWAQSFERLLQDPRGLAYFTEFLKKEFSAENVTFWQACERFQQIPASDTKQLAQEAHNIYHEFLSSQALSPVNIDRQAWLSEEVLAQPRPDMFRAQQLQIFNLMKFDSYARFVKSPLYQECLLAEAEGRPLREPGSSHLGSPDTARKKPKLKPGKSLPLGVEELGQLPLAEGRPLRKSFRREMPGGAVNSALRRESQGSLNSSASLDLGFLAFVSSKSESHRKSLGSGEGESESRPGKYCCVYLPDGTASLALARPGLTIRDMLAGICEKRGLSLPDIKVYLVGKEQKALVLDQDCTVLADQEVRLENRITFQLELVGLERVVRISAKPTKRLQEALQPILAKHGLSLDQVVLHRPGEKQLVDLENLVSSVASQTLVLDTLPDAKTREASSIPPCRSQGCLPRTQTKDSHLPPLSSSLSVEDASGSTGKRQTCDIEGLVELLNRVQSSGAHDQRGLLRKEDLVLPEFLQLPSQRPGSQEAPP
notes: RGS14, rat; expressed as MBP-TEV-RGS14 (the constructs paragraph names pLic-GST); The methods call the fusion MBP-TEV-RGS14 but purify it on a glutathione column and name the vector pLic-GST; the carrier may have been GST; also called WT RGS14; not shown: MBP, N-terminal, cleaved
In the case of B1, the binding result is “binds”.
